The values below come from article PMC1948075 (The EMBO Journal, 2007).

Ends that are not written are not given here.

In general, Kd refers to the equilibrium constant for the complex coming apart. Low readings indicate a tighter complex, high ones a looser complex.

In this experiment the target is T1, GST-IgFLNa21 (amino acids 2236–2329) (human, UniProt P21333 2236-2329).
T1 sequence (looked up): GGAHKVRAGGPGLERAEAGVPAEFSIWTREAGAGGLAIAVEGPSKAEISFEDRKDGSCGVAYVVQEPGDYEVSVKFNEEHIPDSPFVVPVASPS
The experiment can be described thus: pull-down.

B1: recombinant His-tagged integrin β7 cytoplasmic tail model protein (domain or fragment, UniProt P26010 747-798, looked up)
chain: RLSVEIYDRREYSRFEKEQQQLNWKQDSNPLYKSAITTTINPRFQEADSPTL
modifications: also: His-tagged, tag place not given here
B1 registered an equilibrium dissociation constant (Kd) of 700 ± 100 nM.
